According to US20240270821A1, “GIP/GLP1/GCG TRI-RECEPTOR AGONISTS AND USES THEREOF” (priority 2023, published 2024):

How the values were obtained:
Experiment in all cases: cell-based or functional assay
[1] = biological target: human glucagon receptor (human) (UniProt P47871)
hGLP-1R = hGLP-1R (Homo sapiens, UniProt P43220)
[2] = biological target: T1, human GIP receptor (human) (UniProt P48546)
T1 sequence (looked up): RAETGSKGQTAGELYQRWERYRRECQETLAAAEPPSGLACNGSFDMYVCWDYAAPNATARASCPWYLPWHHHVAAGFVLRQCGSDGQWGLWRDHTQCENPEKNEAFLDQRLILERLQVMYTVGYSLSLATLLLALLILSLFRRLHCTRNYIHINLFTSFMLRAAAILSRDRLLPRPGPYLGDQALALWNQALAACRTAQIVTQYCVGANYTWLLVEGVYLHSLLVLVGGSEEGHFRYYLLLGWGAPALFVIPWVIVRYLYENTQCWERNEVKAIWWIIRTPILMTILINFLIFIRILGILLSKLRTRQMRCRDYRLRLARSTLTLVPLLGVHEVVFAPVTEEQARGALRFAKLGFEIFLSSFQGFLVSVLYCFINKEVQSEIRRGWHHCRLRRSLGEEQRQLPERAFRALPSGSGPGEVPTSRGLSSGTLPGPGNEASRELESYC

human glucagon receptor (human), sequence (P47871 26-477): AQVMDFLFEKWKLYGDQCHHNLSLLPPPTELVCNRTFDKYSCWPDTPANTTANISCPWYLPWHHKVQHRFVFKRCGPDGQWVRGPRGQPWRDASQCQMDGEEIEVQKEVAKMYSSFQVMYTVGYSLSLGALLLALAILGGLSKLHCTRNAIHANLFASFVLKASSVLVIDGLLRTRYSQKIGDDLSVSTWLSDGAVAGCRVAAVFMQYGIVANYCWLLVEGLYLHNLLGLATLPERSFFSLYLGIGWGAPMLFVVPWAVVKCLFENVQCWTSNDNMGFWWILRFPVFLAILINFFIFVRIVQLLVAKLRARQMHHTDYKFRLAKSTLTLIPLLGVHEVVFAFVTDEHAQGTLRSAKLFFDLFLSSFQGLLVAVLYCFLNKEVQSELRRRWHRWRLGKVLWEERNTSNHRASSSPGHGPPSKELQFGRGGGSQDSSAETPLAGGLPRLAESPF
hGLP-1R, sequence (P43220 24-463): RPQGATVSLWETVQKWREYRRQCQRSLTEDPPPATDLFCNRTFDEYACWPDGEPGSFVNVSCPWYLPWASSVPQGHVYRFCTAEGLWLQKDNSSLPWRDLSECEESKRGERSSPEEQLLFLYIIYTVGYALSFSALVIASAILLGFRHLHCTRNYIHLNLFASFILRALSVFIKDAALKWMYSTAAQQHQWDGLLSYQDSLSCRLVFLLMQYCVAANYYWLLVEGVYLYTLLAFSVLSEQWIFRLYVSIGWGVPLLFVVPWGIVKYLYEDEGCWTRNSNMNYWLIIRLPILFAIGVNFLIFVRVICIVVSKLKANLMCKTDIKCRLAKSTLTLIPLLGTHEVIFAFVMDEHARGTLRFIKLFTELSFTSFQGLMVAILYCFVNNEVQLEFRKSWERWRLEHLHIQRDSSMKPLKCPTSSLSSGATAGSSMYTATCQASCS

B1: Example 235 (peptide)
chain: YXQGTFTSDFSXXLDKKAQXAFIEYLLEGGPSSGAXPPGGS
modifications: Aib, Orn, αMeL, Hyp; AEEA-γGlu-C18 diacid on Lys; C-terminal amide; synthetic construct; SITE 2: note = 2-Aminoisobutyric Acid; SITE 12: note = L-ornithine; SITE 13: note = alpha-methyl-leucine; SITE 17: note = Lysine is chemically modified through conjugation of the epsilon-amino group of the Lysine side chain with (2-[2-(2-Amino-ethoxy)-ethoxy]-acetyl)-(gamma-Glu)
Binder B1 has a Relative cAMP EC50 [1] of 4.35 nM, a cAMP Rel EC50, nM (1% HSA) [1] of 700 nM and a Relative cAMP EC50 (hGLP-1R) of 3.55 nM. The cAMP Rel EC50, nM (1% HSA) (hGLP-1R) was 457 nM, the Relative cAMP EC50 [2] was 0.388 nM and the cAMP Rel EC50, nM (1% HSA) [2] was 40.8 nM.

B2: Example 270 (peptide)
chain: YXQGTFTSDFSXXLDKKAQXAFIEWLLEGGSSSGAPPPSGH
modifications: synthetic construct; SITE 2: note = 2-Aminoisobutyric Acid; SITE 12: note = L-ornithine; SITE 13: note = alpha-methyl-leucine; SITE 17: note = Lysine is chemically modified through conjugation of the epsilon-amino group of the Lysine side chain with (2-[2-(2-Amino-ethoxy)-ethoxy]-acetyl)-(gamma-Glu)
With B2 the Relative cAMP EC50 [1] was 5 nM, the cAMP Rel EC50 (in the presence of 1% HSA) [1] was 1060 nM and the Relative cAMP EC50 (hGLP-1R) was 3.2 nM. It also gave a cAMP Rel EC50 (in the presence of 1% HSA) (hGLP-1R) of 658 nM, a Relative cAMP EC50 [2] of 0.26 nM and a cAMP Rel EC50 (in the presence of 1% HSA) [2] of 36.5 nM.

B3: Example 263 (peptide)
chain: YXQGTFTSDFSXXLDKKAQXAFIEWLLEAGSSSGAPPPSGT
modifications: synthetic construct; SITE 2: note = 2-Aminoisobutyric Acid; SITE 12: note = L-ornithine; SITE 13: note = alpha-methyl-leucine; SITE 17: note = Lysine is chemically modified through conjugation of the epsilon-amino group of the Lysine side chain with (2-[2-(2-Amino-ethoxy)-ethoxy]-acetyl)-(gamma-Glu)
In the case of B3, the Relative cAMP EC50 [1] is reported as 7.53 nM, the cAMP Rel EC50 (in the presence of 1% HSA) [1] is reported as 893 nM and the Relative cAMP EC50 (hGLP-1R) is reported as 1.32 nM. The cAMP Rel EC50 (in the presence of 1% HSA) (hGLP-1R) was 257 nM, the Relative cAMP EC50 [2] was 0.169 nM and the cAMP Rel EC50 (in the presence of 1% HSA) [2] was 25.7 nM.

B4: Example 244 (peptide)
chain: YXQGTFTSDFSXXLDKKAQXAFIEYLLEXGESSGAPPPSGS
modifications: Aib, Orn, αMeL; γGlu-AEEA-γGlu-C18 diacid on Lys; C-terminal amide; synthetic construct; SITE 2: note = 2-Aminoisobutyric Acid; SITE 12: note = L-ornithine; SITE 13: note = alpha-methyl-leucine; SITE 17: note = Lysine is chemically modified through conjugation of the epsilon-amino group of the Lysine side chain with (gamma-Glu)-(2-[2-(2-Amino-ethoxy)-ethoxy]-acetyl)
With B4 the Relative cAMP EC50 [1] was 4.81 nM, the cAMP Rel EC50, nM (1% HSA) [1] was 1230 nM and the Relative cAMP EC50 (hGLP-1R) was 7.68 nM. For the same binder, the cAMP Rel EC50, nM (1% HSA) (hGLP-1R) was 645 nM, the Relative cAMP EC50 [2] was 0.0972 nM and the cAMP Rel EC50, nM (1% HSA) [2] was 18.8 nM.

B5: Example 264 (peptide)
chain: YXQGTFTSDFSXXLDKKAQXAFIEWLLEXGSSSGAPPPSGT
modifications: synthetic construct; SITE 2: note = 2-Aminoisobutyric Acid; SITE 12: note = L-ornithine; SITE 13: note = alpha-methyl-leucine; SITE 17: note = Lysine is chemically modified through conjugation of the epsilon-amino group of the Lysine side chain with (2-[2-(2-Amino-ethoxy)-ethoxy]-acetyl)-(gamma-Glu)
Work on B5 yielded a Relative cAMP EC50 [1] of 6.29 nM, a cAMP Rel EC50 (in the presence of 1% HSA) [1] of 1000 nM and a Relative cAMP EC50 (hGLP-1R) of 4.67 nM. It also gave a cAMP Rel EC50 (in the presence of 1% HSA) (hGLP-1R) of 688 nM, a Relative cAMP EC50 [2] of 0.0884 nM and a cAMP Rel EC50 (in the presence of 1% HSA) [2] of 12.4 nM.

B6: Example 259 (peptide)
chain: YXQGTFTSDFSXXLDKKAQXAFIEYLLEAGPSSGAPPPSGH
modifications: synthetic construct; SITE 2: note = 2-Aminoisobutyric Acid; SITE 12: note = L-ornithine; SITE 13: note = alpha-methyl-leucine; SITE 17: note = Lysine is chemically modified through conjugation of the epsilon-amino group of the Lysine side chain with (2-[2-(2-Amino-ethoxy)-ethoxy]-acetyl)-(gamma-Glu)
B6 gave a Relative cAMP EC50 [1] of 2.55 nM, a cAMP Rel EC50 (in the presence of 1% HSA) [1] of 317 nM and a Relative cAMP EC50 (hGLP-1R) of 1.47 nM. The cAMP Rel EC50 (in the presence of 1% HSA) (hGLP-1R) was 220 nM, the Relative cAMP EC50 [2] was 0.114 nM and the cAMP Rel EC50 (in the presence of 1% HSA) [2] was 18.4 nM.

B7: Example 267 (peptide)
chain: YXQGTFTSDFSXXLDKKAQXAFIEWLLEGGXSSGAPPPSGE
modifications: synthetic construct; SITE 2: note = 2-Aminoisobutyric Acid; SITE 12: note = L-ornithine; SITE 13: note = alpha-methyl-leucine; SITE 17: note = Lysine is chemically modified through conjugation of the epsilon-amino group of the Lysine side chain with (2-[2-(2-Amino-ethoxy)-ethoxy]-acetyl)-(gamma-Glu)
Work on B7 yielded a Relative cAMP EC50 [1] of 5.74 nM, a cAMP Rel EC50 (in the presence of 1% HSA) [1] of 1380 nM and a Relative cAMP EC50 (hGLP-1R) of 5.86 nM. For the same binder, the cAMP Rel EC50 (in the presence of 1% HSA) (hGLP-1R) was 1020 nM, the Relative cAMP EC50 [2] was 0.279 nM and the cAMP Rel EC50 (in the presence of 1% HSA) [2] was 55.5 nM.

B8: Example 243 (peptide)
chain: YXQGTFTSDFSXXLDKKAQXAFIEYLLEXGHSSGAPPPSGS
modifications: Aib, Orn, αMeL; lipidated Lys; C-terminal amide; synthetic construct; SITE 2: note = 2-Aminoisobutyric Acid; SITE 12: note = L-ornithine; SITE 13: note = alpha-methyl-leucine; SITE 17: note = Lysine is chemically modified through conjugation of the epsilon-amino group of the Lysine side chain with (2-[2-(2-Amino-ethoxy)-ethoxy]-acetyl)-(gamma-Glu)
With B8 the Relative cAMP EC50 [1] was 6.86 nM, the Relative cAMP EC50 (hGLP-1R) was 6.46 nM and the Relative cAMP EC50 [2] was 0.178 nM.

B9: Example 236 (peptide)
chain: YXQGTFTSDFSXXLDKKAQXAFIEYLLEGGPSSGAPXPGGS
modifications: Aib, Orn, αMeL, Hyp; acylated Lys; C-terminal amide; synthetic construct; SITE 2: note = 2-Aminoisobutyric Acid; SITE 12: note = L-ornithine; SITE 13: note = alpha-methyl-leucine; SITE 17: note = Lysine is chemically modified through conjugation of the epsilon-amino group of the Lysine side chain with (2-[2-(2-Amino-ethoxy)-ethoxy]-acetyl)-(gamma-Glu)
B9 showed a Relative cAMP EC50 [1] of 2.23 nM, a cAMP Rel EC50, nM (1% HSA) [1] of 309 nM and a Relative cAMP EC50 (hGLP-1R) of 3.33 nM. The cAMP Rel EC50, nM (1% HSA) (hGLP-1R) was 261 nM, the Relative cAMP EC50 [2] was 0.309 nM and the cAMP Rel EC50, nM (1% HSA) [2] was 24.8 nM.

B10: Example 261 (peptide)
chain: YXQGTFTSDFSXXLDKKAQXAFIEYLLEGGPSSGAPPPGGX
modifications: synthetic construct; SITE 2: note = 2-Aminoisobutyric Acid; SITE 12: note = L-ornithine; SITE 13: note = alpha-methyl-leucine; SITE 17: note = Lysine is chemically modified through conjugation of the epsilon-amino group of the Lysine side chain with (2-[2-(2-Amino-ethoxy)-ethoxy]-acetyl)-(gamma-Glu)
For B10, the Relative cAMP EC50 [1] was 5.49 nM, the cAMP Rel EC50 (in the presence of 1% HSA) [1] was 520 nM and the Relative cAMP EC50 (hGLP-1R) was 3.12 nM. The cAMP Rel EC50 (in the presence of 1% HSA) (hGLP-1R) was 383 nM, the Relative cAMP EC50 [2] was 0.29 nM and the cAMP Rel EC50 (in the presence of 1% HSA) [2] was 38.4 nM.

B11: Example 237 (peptide)
chain: YXQGTFTSDFSXXLDKKAQXAFIEYLLEGGPSSGAPPXGGS
modifications: non-natural residues; lipidated Lys AEEA-γGlu-C18 diacid; C-term amide; synthetic construct; SITE 2: note = 2-Aminoisobutyric Acid; SITE 12: note = L-ornithine; SITE 13: note = alpha-methyl-leucine; SITE 17: note = Lysine is chemically modified through conjugation of the epsilon-amino group of the Lysine side chain with (2-[2-(2-Amino-ethoxy)-ethoxy]-acetyl)-(gamma-Glu)
B11 was tested, and the Relative cAMP EC50 [1] was 3.77 nM, the cAMP Rel EC50, nM (1% HSA) [1] was 441 nM and the Relative cAMP EC50 (hGLP-1R) was 3.4 nM. For the same binder, the cAMP Rel EC50, nM (1% HSA) (hGLP-1R) was 291 nM, the Relative cAMP EC50 [2] was 0.228 nM and the cAMP Rel EC50, nM (1% HSA) [2] was 30.9 nM.

B12: Example 258 (peptide)
chain: YXQGTFTSDFSXXLDKKAQXAFIEYLLEAGPSSGXPPPSGX
modifications: synthetic construct; SITE 2: note = 2-Aminoisobutyric Acid; SITE 12: note = L-ornithine; SITE 13: note = alpha-methyl-leucine; SITE 17: note = Lysine is chemically modified through conjugation of the epsilon-amino group of the Lysine side chain with (2-[2-(2-Amino-ethoxy)-ethoxy]-acetyl)2-(gamma-Glu)
Binder B12 has a Relative cAMP EC50 [1] of 7.15 nM, a cAMP Rel EC50 (in the presence of 1% HSA) [1] of 1280 nM and a Relative cAMP EC50 (hGLP-1R) of 2.71 nM. It also gave a cAMP Rel EC50 (in the presence of 1% HSA) (hGLP-1R) of 492 nM, a Relative cAMP EC50 [2] of 0.154 nM and a cAMP Rel EC50 (in the presence of 1% HSA) [2] of 23.3 nM.

B13: Example 240 (peptide)
chain: YXQGTFTSDFSXXLDKKAQXAFIEYLLEXGESSGAPPPSGS
modifications: non-natural residues; lipidated Lys; C-terminal amide; synthetic construct; SITE 2: note = 2-Aminoisobutyric Acid; SITE 12: note = L-ornithine; SITE 13: note = alpha-methyl-leucine; SITE 17: note = Lysine is chemically modified through conjugation of the epsilon-amino group of the Lysine side chain with (2-[2-(2-Amino-ethoxy)-ethoxy]-acetyl)-(gamma-Glu)
B13 showed a Relative cAMP EC50 [1] of 2.02 nM, a cAMP Rel EC50, nM (1% HSA) [1] of 521 nM and a Relative cAMP EC50 (hGLP-1R) of 3.62 nM. The cAMP Rel EC50, nM (1% HSA) (hGLP-1R) was 396 nM, the Relative cAMP EC50 [2] was 0.214 nM and the cAMP Rel EC50, nM (1% HSA) [2] was 10.4 nM.

B14: Example 262 (peptide)
chain: YXQGTFTSDFSXXLDKKAQXAFIEWLLEGGPSSGAPPPEGX
modifications: synthetic construct; SITE 2: note = 2-Aminoisobutyric Acid; SITE 12: note = L-ornithine; SITE 13: note = alpha-methyl-leucine; SITE 17: note = Lysine is chemically modified through conjugation of the epsilon-amino group of the Lysine side chain with (2-[2-(2-Amino-ethoxy)-ethoxy]-acetyl)-(gamma-Glu)
B14 gave a Relative cAMP EC50 [1] of 9.77 nM, a cAMP Rel EC50 (in the presence of 1% HSA) [1] of 720 nM and a Relative cAMP EC50 (hGLP-1R) of 4.39 nM. The cAMP Rel EC50 (in the presence of 1% HSA) (hGLP-1R) was 400 nM, the Relative cAMP EC50 [2] was 0.232 nM and the cAMP Rel EC50 (in the presence of 1% HSA) [2] was 40.4 nM.
